These results are taken from patent US5538946A, “Hirudin derivatives with delayed action” (Hoechst Aktiengesellschaft, priority 1988, dated 1996).

In the experiment the target is thrombin (Homo sapiens, UniProt P00734). Nature of the experiment: In vitro thrombin inhibition assay (coagulation time) as in Example 2, with re-use of isolated Sepharose-hirudin. The experiment is classed as biochemical. Particulars: isolated from treated plasma, washed with 1 to 1.5 M NaCl, employed again. The method, then:
Female and male Wistar rats with a body weight of about 300 g are anesthetized with ethylurethane (1.5 g/kg i.p.). 1000 AT-U/kg of a hirudin derivative or authentic `Leu-Thr-hirudin`, which has been dissolved in physiological saline, are administered i.v. to the rats. A catheter is implanted in the carotid of the animals for blood sampling. Blood is taken from the animals and treated with citrate for the determination of anti-thrombin activity. 0.1 ml of the blood treated in this way is mixed with 0.2 ml of Tris/HCl buffer (0.1 mol/1; pH 7.4) and preincubated at 37° C. After addition of 0.1 ml of a thrombin solution (10 NIH-U/ml) the coagulation time is determined using a Schnitger and Gross coagulometer. In parallel with the experiment a calibration plot is constructed using reference plasma, from which the particular plasma hirudin or plasma hirudin derivative concentration is read off.
The protein coupling yield is 5 %. The biological activity is determined in vitro as in Example 2. The Sepharose-hirudin is isolated from the treated plasma, washed with a 1 to 1.5 M NaCl solution and again employed in the inhibition assay.

As for “Sepharose-hirudin: hirudin immobilised on activated CH-Sepharose 4 B (Pharmacia)”, the “measured activity on re-use in the inhibition assay” value was “within the limit of error of the first measurement”.
